Experimental data taken from publication doi:10.1101/2022.03.14.484276.

Target: BsaXI S subunit (specificity subunit), WT TRD1-CR1-TRD2-CR2 (Bacillus stearothermophilus 25B (Geobacillus sp. 25B))
Assay: co-purification through chromatography columns

stoichiometry N: 2 RM per S
Substance: BsaXI RM subunit (restriction-modification fusion subunit) (enzyme)
